Assay results: publication PMC8809517, “Cofactor-independent RNA editing by a synthetic S-type PPR protein”

T1: GFP-9S library array, motif 4 ND N98R (synthetic construct, N98R)
T1 chain: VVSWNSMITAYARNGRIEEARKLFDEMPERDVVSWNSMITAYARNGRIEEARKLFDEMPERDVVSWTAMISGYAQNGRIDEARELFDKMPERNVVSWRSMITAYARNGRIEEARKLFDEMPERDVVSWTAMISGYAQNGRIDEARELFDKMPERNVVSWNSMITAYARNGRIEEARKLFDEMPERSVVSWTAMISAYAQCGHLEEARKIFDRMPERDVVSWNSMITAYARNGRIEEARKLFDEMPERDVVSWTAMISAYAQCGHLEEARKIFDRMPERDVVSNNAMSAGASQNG

T2: GFP-9S library array, motif 4 ND D124H (synthetic construct, D124H)
T2 chain: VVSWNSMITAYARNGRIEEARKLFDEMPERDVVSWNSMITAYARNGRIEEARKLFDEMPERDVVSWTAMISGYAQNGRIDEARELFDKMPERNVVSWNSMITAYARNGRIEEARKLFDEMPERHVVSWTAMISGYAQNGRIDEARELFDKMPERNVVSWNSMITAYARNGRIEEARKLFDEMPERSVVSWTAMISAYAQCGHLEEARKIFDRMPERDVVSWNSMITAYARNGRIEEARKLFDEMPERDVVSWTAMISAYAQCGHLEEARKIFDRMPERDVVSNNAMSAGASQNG

T3: GFP-9S library array, motif 4 ND N98H;D124G (synthetic construct, N98H;D124G)
T3 chain: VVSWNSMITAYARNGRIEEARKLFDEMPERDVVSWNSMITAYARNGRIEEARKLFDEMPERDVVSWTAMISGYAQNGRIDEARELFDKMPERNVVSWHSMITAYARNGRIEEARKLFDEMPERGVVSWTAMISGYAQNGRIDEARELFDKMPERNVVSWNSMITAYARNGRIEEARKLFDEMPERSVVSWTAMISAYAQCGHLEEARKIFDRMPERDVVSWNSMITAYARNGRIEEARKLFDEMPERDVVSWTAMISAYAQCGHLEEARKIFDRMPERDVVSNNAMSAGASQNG

T4: GFP-9S library array, motif 4 ND N98L (synthetic construct, N98L)
T4 chain: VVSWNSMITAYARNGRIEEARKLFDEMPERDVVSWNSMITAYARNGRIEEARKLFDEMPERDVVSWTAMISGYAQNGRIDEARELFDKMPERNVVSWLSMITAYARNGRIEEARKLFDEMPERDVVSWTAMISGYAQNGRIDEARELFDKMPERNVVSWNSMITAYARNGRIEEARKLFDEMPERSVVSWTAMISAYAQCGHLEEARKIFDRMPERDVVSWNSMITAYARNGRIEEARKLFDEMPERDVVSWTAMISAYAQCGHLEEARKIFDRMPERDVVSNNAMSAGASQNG

T5: GFP-9S library array, motif 4 ND N98E;D124S (synthetic construct, N98E;D124S)
T5 chain: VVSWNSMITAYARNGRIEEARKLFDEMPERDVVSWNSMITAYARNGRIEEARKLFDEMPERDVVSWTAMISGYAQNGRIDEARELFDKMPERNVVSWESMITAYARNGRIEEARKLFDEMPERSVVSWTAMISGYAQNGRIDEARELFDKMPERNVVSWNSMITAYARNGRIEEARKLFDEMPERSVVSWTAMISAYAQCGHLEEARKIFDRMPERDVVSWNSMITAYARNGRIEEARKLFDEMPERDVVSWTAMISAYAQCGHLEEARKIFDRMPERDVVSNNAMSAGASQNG


How the values were obtained:
Experiment in all cases: high-throughput RNA pulldown from lysate on Ni-NTA beads; HRP: 50 mM Tris pH 8, 150 mM NaCl, 1 mM beta-mercaptoethanol, 50 ug/ml BSA, 3 ug/ml yeast RNA, 0.5% heparin; ITC and FP: Tris pH 8, 200 mM KCl, 5% glycerol; MST: 50 mM Tris pH 8, 200 mM NaCl, 1 mM DTT, BSA, heparin, 0.05% Tween 20
Settings in all cases: tags: N-terminal His-eGFP
[1] = molecular target: T1, GFP-9S library array, motif 4 ND N98R
[2] = molecular target: T2, GFP-9S library array, motif 4 ND D124H
[3] = molecular target: T3, GFP-9S library array, motif 4 ND …
[4] = molecular target: T4, GFP-9S library array, motif 4 ND N98L
[5] = molecular target: T5, GFP-9S library array, motif 4 ND …

Binder	Kd ([1]; label: 5' Cy5)	Kd ([2]; label: 5' Cy5)	Kd ([3]; label: 5' Cy5)	Kd ([4]; label: 5' Cy5)	Kd ([5]; label: 5' Cy5)	Kd ([1]; label: 5' IRDye 800CW)	Kd ([2]; label: 5' IRDye 800CW)	Kd ([3]; label: 5' IRDye 800CW)	Kd ([4]; label: 5' IRDye 800CW)	Kd ([5]; label: 5' IRDye 800CW)
AUUAGACGUGA (ssRNA) [Cy5-rpoA-G]	253 nM	287 nM	37.1 nM	183 nM	630 nM	–	–	–	–	–
AUUAAACGUGA (ssRNA) [IR-rpoA-A]	–	–	–	–	–	645 nM	285 nM	61.3 nM	452 nM	938 nM
AUUAUACGUGA (ssRNA) [IR-rpoA-U]	–	–	–	–	–	428 nM	40.7 nM	38.7 nM	66.3 nM	512 nM
AUUACACGUGA (ssRNA) [Cy5-rpoA]	207 nM	166 nM	101 nM	214 nM	422 nM	–	–	–	–	–
